# Test results reported in the supplement of paper PMC5998384.
# How the values were obtained:
# HeLa Kyoto [1] = test: solubility in G1/S (NP-40 vs SDS abundance) (log2 ratio); higher = more soluble; details: cell cycle stage: G1/S
# HeLa Kyoto [2] = test: melting temperature (median over replicates), in situ; higher = more thermally stable
# HeLa Kyoto [3] = test: solubility change mitosis vs G1/S (difference of NP-40 vs SDS log2 ratios) (log2 ratio difference); higher = more soluble in mitosis
# HeLa Kyoto [4] = test: thermal stability score vs G1/S (z-score of summed log2 fold changes over temperatures); higher = more thermally stable than in G1/S
# [5] = cell cycle stage: early G1 (4.5 h after nocodazole release)
# 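For melting temperature (median over replicates), in situ in this document: HeLa Kyoto cells synchronized by double thymidine or nocodazole block, proteins quantified by TMT10plex mass spectrometry, three independent biological replicates.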
# 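For solubility change mitosis vs G1/S (difference of NP-40 vs SDS log2 ratios) in this document: synchronized HeLa Kyoto cells (double thymidine block for G1/S, nocodazole release for mitosis), protein amounts in NP-40 versus SDS lysates quantified by mass spectrometry, three biological replicates.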
# 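For solubility in G1/S (NP-40 vs SDS abundance) in this document: HeLa Kyoto cells arrested at G1/S by double thymidine block, proteins quantified by TMT10plex mass spectrometry in mild NP-40 versus SDS extracts, three biological replicates.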
# 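For thermal stability score vs G1/S (z-score of summed log2 fold changes over temperatures) in this document: synchronized HeLa Kyoto cells, proteins quantified by TMT10plex mass spectrometry, three biological replicates, mitosis taken 0.5 h after nocodazole release, G1/S directly after double thymidine block.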
# Sequence of MAT2A (chain, as listed by the source): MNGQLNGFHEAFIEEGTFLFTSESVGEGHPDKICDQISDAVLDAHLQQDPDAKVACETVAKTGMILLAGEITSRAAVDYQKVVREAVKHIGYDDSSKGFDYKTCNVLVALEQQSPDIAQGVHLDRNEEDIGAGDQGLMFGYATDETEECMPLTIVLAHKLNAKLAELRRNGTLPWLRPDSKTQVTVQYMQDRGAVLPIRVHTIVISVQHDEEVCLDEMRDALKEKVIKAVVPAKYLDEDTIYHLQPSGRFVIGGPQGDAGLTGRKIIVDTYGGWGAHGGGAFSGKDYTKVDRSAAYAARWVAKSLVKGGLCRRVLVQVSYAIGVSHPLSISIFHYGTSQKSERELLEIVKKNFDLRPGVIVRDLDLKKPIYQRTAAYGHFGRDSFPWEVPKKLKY
Substance,solubility in G1/S (log2) (HeLa Kyoto [1]),melting temperature (HeLa Kyoto [2]; cell cycle stage: G1/S) [°C],melting temperature (HeLa Kyoto [2]; cell cycle stage: mitosis) [°C],solubility change mitosis (log2) (HeLa Kyoto [3]),thermal stability score (HeLa Kyoto [4]; [5]),thermal stability score (HeLa Kyoto [4]; cell cycle stage: mitosis)
MAQRHSDSSLEEKLLGHRFHSELRLDAGGNPASGLPMVRGSPRVRDDAAFQPQVPAPPQPRPPGHEEPWPIVLSTESPAALKLGTQQLIPKSLAVASKAKTPARHQSFGAAVLSREAARRDPKLLPAPSFSLDDMDVDKDPGGMLRRNLRNQSYRAAMKGLGKPGGQGDAIQLSPKLQALAEEPSQPHTRSPAKNKKTLGRKRGHKGSFKDDPQLYQEIQERGLNTSQESDDDILDESSSPEGTQKVDATIVVKSYRPAQVTWSQLPEVVELGILDQLSTEERKRQEAMFEILTSEFSYQHSLSILVEEFLQSKELRATVTQMEHHHLFSNILDVLGASQRFFEDLEQRHKAQVLVEDISDILEEHAEKHFHPYIAYCSNEVYQQRTLQKLISSNAAFREALREIERRPACGGLPMLSFLILPMQRVTRLPLLMDTLCLKTQGHSERYKAASRALKAISKLVRQCNEGAHRMERMEQMYTLHTQLDFSKVKSLPLISASRWLLKRGELFLVEETGLFRKIASRPTCYLFLFNDVLVVTKKKSEESYMVQDYAQMNHIQVEKIEPSELPLPGGGNRSSSVPHPFQVTLLRNSEGRQEQLLLSSDSASDRARWIVALTHSERQWQGLSSKGDLPQVEITKAFFAKQADEVTLQQADVVLVLQQEDGWLYGERLRDGETGWFPEDFARFITSRVAVEGNVRRMERLRVETDV [ARHGEF16],-0.0605,49.4,49.5,-0.0697,0.0138,0.41
MWTLVSWVALTAGLVAGTRCPDGQFCPVACCLDPGGASYSCCRPLLDKWPTTLSRHLGGPCQVDAHCSAGHSCIFTVSGTSSCCPFPEAVACGDGHHCCPRGFHCSADGRSCFQRSGNNSVGAIQCPDSQFECPDFSTCCVMVDGSWGCCPMPQASCCEDRVHCCPHGAFCDLVHTRCITPTGTHPLAKKLPAQRTNRAVALSSSVMCPDARSRCPDGSTCCELPSGKYGCCPMPNATCCSDHLHCCPQDTVCDLIQSKCLSKENATTDLLTKLPAHTVGDVKCDMEVSCPDGYTCCRLQSGAWGCCPFTQAVCCEDHIHCCPAGFTCDTQKGTCEQGPHQVPWMEKAPAHLSLPDPQALKRDVPCDNVSSCPSSDTCCQLTSGEWGCCPIPEAVCCSDHQHCCPQGYTCVAEGQCQRGSEIVAGLEKMPARRASLSHPRDIGCDQHTSCPVGQTCCPSLGGSWACCQLPHAVCCEDRQHCCPAGYTCNVKARSCEKEVVSAQPATFLARSPHVGVKDVECGEGHFCHDNQTCCRDNRQGWACCPYRQGVCCADRRHCCPAGFRCAARGTKCLRREAPRWDAPLRDPALRQLL [GRN],0.135,54.9,60.5,-0.134,-2.57,-3.69
MRHLPYFCRGQVVRGFGRGSKQLGIPTANFPEQVVDNLPADISTGIYYGWASVGSGDVHKMVVSIGWNPYYKNTKKSMETHIMHTFKEDFYGEILNVAIVGYLRPEKNFDSLESLISAIQGDIEEAKKRLELPEHLKIKEDNFFQVSKSKIMNGH [RFK],0.518,52.7,54.1,-0.114,0.0986,-0.44
MAT2A,-0.00612,57,57.3,-0.123,-0.032,0.349
MASVTRAVFGELPSGGGTVEKFQLQSDLLRVDIISWGCTITALEVKDRQGRASDVVLGFAELEGYLQKQPYFGAVIGRVANRIAKGTFKVDGKEYHLAINKEPNSLHGGVRGFDKVLWTPRVLSNGVQFSRISPDGEEGYPGELKVWVTYTLDGGELIVNYRAQASQATPVNLTNHSYFNLAGQASPNINDHEVTIEADTYLPVDETLIPTGEVAPVQGTAFDLRKPVELGKHLQDFHLNGFDHNFCLKGSKEKHFCARVHHAASGRVLEVYTTQPGVQFYTGNFLDGTLKGKNGAVYPKHSGFCLETQNWPDAVNQPRFPPVLLRPGEEYDHTTWFKFSVA [GALM],0.236,,51.4,-0.0325,-0.647,-0.863
MPVKGGTKCIKYLLFGFNFIFWLAGIAVLAIGLWLRFDSQTKSIFEQETNNNNSSFYTGVYILIGAGALMMLVGFLGCCGAVQESQCMLGLFFGFLLVIFAIEIAAAIWGYSHKDEVIKEVQEFYKDTYNKLKTKDEPQRETLKAIHYALNCCGLAGGVEQFISDICPKKDVLETFTVKSCPDAIKEVFDNKFHIIGAVGIGIAVVMIFGMIFSMILCCAIRRNREMV [CD9],-0.0106,62.4,60.4,-0.149,2.82,0.357
DIP2A,-0.104,51.3,,-0.0755,0.00154,0.398
BIRC6,-0.141,51.6,51.2,-0.125,-0.354,-0.341
MSTGTFVVSQPLNYRGGARVEPADASGTEKAFEPATGRVIATFTCSGEKEVNLAVQNAKAAFKIWSQKSGMERCRILLEAARIIREREDEIATMECINNGKSIFEARLDIDISWQCLEYYAGLAASMAGEHIQLPGGSFGYTRREPLGVCVGIGAWNYPFQIASWKSAPALACGNAMVFKPSPFTPVSALLLAEIYSEAGVPPGLFNVVQGGAATGQFLCQHPDVAKVSFTGSVPTGMKIMEMSAKGIKPVTLELGGKSPLIIFSDCDMNNAVKGALMANFLTQGQVCCNGTRVFVQKEILDKFTEEVVKQTQRIKIGDPLLEDTRMGPLINRPHLERVLGFVKVAKEQGAKVLCGGDIYVPEDPKLKDGYYMRPCVLTNCRDDMTCVKEEIFGPVMSILSFDTEAEVLERANDTTFGLAAGVFTRDIQRAHRVVAELQAGTCFINNYNVSPVELPFGGYKKSGFGRENGRVTIEYYSQLKTVCVEMGDVESAF [ALDH9A1],0.24,57.1,57.3,-0.0784,0.248,-0.642
MADESETAVKPPAPPLPQMMEGNGNGHEHCSDCENEEDNSYNRGGLSPANDTGAKKKKKKQKKKKEKGSETDSAQDQPVKMNSLPAERIQEIQKAIELFSVGQGPAKTMEEASKRSYQFWDTQPVPKLGEVVNTHGPVEPDKDNIRQEPYTLPQGFTWDALDLGDRGVLKELYTLLNENYVEDDDNMFRFDYSPEFLLWALRPPGWLPQWHCGVRVVSSRKLVGFISAIPANIHIYDTEKKMVEINFLCVHKKLRSKRVAPVLIREITRRVHLEGIFQAVYTAGVVLPKPVGTCRYWHRSLNPRKLIEVKFSHLSRNMTMQRTMKLYRLPETPKTAGLRPMETKDIPVVHQLLTRYLKQFHLTPVMSQEEVEHWFYPQENIIDTFVVENANGEVTDFLSFYTLPSTIMNHPTHKSLKAAYSFYNVHTQTPLLDLMSDALVLAKMKGFDVFNALDLMENKTFLEKLKFGIGDGNLQYYLYNWKCPSMGAEKVGLVLQ [NMT1],-0.131,53.9,53.5,0.1,-0.333,-0.823
SUMF2,0.289,52.9,54.7,0.00354,4.15,3.23
MLDFAIFAVTFLLALVGAVLYLYPASRQAAGIPGITPTEEKDGNLPDIVNSGSLHEFLVNLHERYGPVVSFWFGRRLVVSLGTVDVLKQHINPNKTSDPFETMLKSLLRYQSGGGSVSENHMRKKLYENGVTDSLKSNFALLLKLSEELLDKWLSYPETQHVPLSQHMLGFAMKSVTQMVMGSTFEDDQEVIRFQKNHGTVWSEIGKGFLDGSLDKNMTRKKQYEDALMQLESVLRNIIKERKGRNFSQHIFIDSLVQGNLNDQQILEDSMIFSLASCIITAKLCTWAICFLTTSEEVQKKLYEEINQVFGNGPVTPEKIEQLRYCQHVLCETVRTAKLTPVSAQLQDIEGKIDRFIIPRETLVLYALGVVLQDPNTWPSPHKFDPDRFDDELVMKTFSSLGFSGTQECPELRFAYMVTTVLLSVLVKRLHLLSVEGQVIETKYELVTSSREEAWITVSKRY [CYP20A1],-0.178,54.4,55.1,-0.0969,0.229,-1.11
